# The RNAGym collection of RNA variant scans (doi:10.7554/elife.90254)
# B1: OR4K15 (parent)
# chain: GUUAACGGUCAUAGGCCAUGGAAACUAGGAGCACCAUUUCGCUGCCAGUGAAGAAAUGAACAAAGAAAAUCUGGGCCAGGCAGGCAUCAAAAGAAAUAGUCUUGCGCUCAACCAGAAAGUCUGUAAUCAUUUUAAGGGUA
# Variants of: B1
# Experiment: self-cleavage, relative activity (ratio to wild type); higher = more cleavage; in vitro, sequencing; the parent is a self-cleaving ribozyme
row,Variant,self-cleavage
1,C6U A110G,0.19
2,G7U A86G,1.64
3,G8C U122C,1.12
4,G7U A67G,1.28
5,A5U A47C,1.29
6,A5U A126U,0
7,C6A A117G,0.6
8,A5G A30U,1.14
9,G8A A95G,1.52
10,A5U A11G,1.49
11,A4U G106A,0.14
12,A5U A82U,0.38
13,G7A A69U,1.79
14,A4U U127C,1.34
15,A5C A110G,0.33
16,A5G G29C,0.82
17,G7A U132C,1.2
18,G8A A22G,1.39
19,A4U A95G,1.65
20,C6U G79U,0.11
21,C6U A52G,0.59
22,G7A A86G,0.94
23,C6U U19G,0.77
24,C6U G80A,0.22

row,Variant,self-cleavage
1,A5G U9C,0.82
2,G8A A18G,0.78
3,A5G G104A,0.03
4,G7A A22U,1.51
5,G7A A22G,1.42
6,A5G U97C,1.25
7,G7U U12C,0.79
8,G7A G79A,0.11
9,C6U A117U,1.1
10,A5U A60G,0.99
11,A5U A60C,1.78
12,A5U U49A,1.79
13,A5C U103C,1.39
14,A5G A68G,0.89
15,G7A G137U,2.13
16,A5G C121U,1.14
17,A5G C121A,1.89
18,A5U A89G,1.15
19,G8A U49C,2.37
20,G8A A96G,1.97
21,A5U U102C,1.69
22,G7U A114G,0.16
23,G7A A62C,1.41
24,C6U C46U,1.03

row,Variant,self-cleavage
1,G8A A60G,1.53
2,A5G U57C,0.68
3,C6U G44A,1.34
4,G8A A129U,1.63
5,A5C C17U,0.39
6,A5G A92U,0.95
7,A5U A91G,0.86
8,A5U A91U,1.64
9,C6U U132C,0.63
10,C6U U132A,0.56
11,A5C U102A,1.35
12,A5G U87C,0.88
13,A5G A66G,0.87
14,C6U A134G,1.38
15,A5G A52C,1.39
16,A5G A52G,1.07
17,A4G U103A,1.27
18,A4G U103C,1.19
19,A5G U132C,0.89
20,A5G U132A,0.6
21,A5U U12A,0.69
22,A5G C128G,0.8
23,C6G,1.83
24,C6U,0.75

row,Variant,self-cleavage
1,C6A,1.28
2,A5G C107U,0.02
3,C6U U102A,1.22
4,C6U A125C,1
5,A5G U49C,0.97
6,A5U U70A,1.23
7,A4U U57C,0.65
8,A4U U57A,1.53
9,A5U A118G,0.83
10,A5G U43A,1.49
11,A5G U43C,0.59
12,C6G U132C,0.79
13,G7U A59G,0.98
14,A5U A66G,1.27
15,A5G G65A,0.9
16,C6U A27G,2.16
17,G7A A18C,1.98
18,G7A A18G,0.64
19,G7A A114U,0.06
20,C6A U122C,0.29
21,G7A G74U,0.2
22,A5U U97C,0
23,G7U U39C,0.54
24,G7U U49C,1.71

row,Variant,self-cleavage
1,A5G U26C,0.6
2,A5U A110G,0.29
3,G7U A117G,1.7
4,G7U U131C,1.14
5,A5G U70C,0.82
6,A5G C88U,1.02
7,A5G G21A,1.23
8,G8A U70C,1.22
9,G7A U19C,1.14
10,G8A U120C,1.57
11,C6A U57C,0.36
12,G7A A92G,1.8
13,G7A A92U,1.72
14,G7U A18U,0.43
15,C6A A111G,0.08
16,C6A C10U,0.25
17,A5G A11U,0.86
18,C6U A47U,0.51
19,G7A G44U,1.28
20,C6A U49C,0.74
21,A5U U38C,1.27
22,G7A A59G,1.46
23,G8A C32U,2.12
24,A5G U127A,2.43

row,Variant,self-cleavage
1,A5G U127C,0.8
2,A5C A52G,0.46
3,G8A U103G,0.03
4,G8A U103C,1.61
5,C6A U127C,0.49
6,A5U A86G,0.92
7,G7U U108A,0.06
8,G7U U108C,0.02
9,C6U G20U,1.06
10,G7U A95G,1.43
11,A5G G137A,0.6
12,C6A A66G,1.23
13,C6U U120C,0.33
14,A5C A117U,0.56
15,G8A U102C,2.44
16,A5G U72A,0.43
17,A5G U72C,0.41
18,G7A A68G,1.92
19,C6U U57A,0.77
20,C6U C77U,0.34
21,G7A U87C,1.25
22,A5U G15A,1.04
23,G7U U57C,1.41
24,A5U U100G,1.03

row,Variant,self-cleavage
1,G7U G104A,0.05
2,G8C U43C,2.42
3,G7A U12C,1.33
4,G7A U70A,1.94
5,C6A A89C,1.1
6,A5G A36U,1.13
7,G7A A111G,0.03
8,A5G A56G,0.66
9,G7U A47G,1.17
10,A4U U72A,0.28
11,A5U A116U,0.35
12,G7U A90G,2.21
13,C6U A11U,1.34
14,A4U A140G,1.16
15,G7U A56G,1.29
16,G8A A92G,1.56
17,A5C,1.21
18,A5G,0.92
19,A5U,1.1
20,G7A U139C,1.82
21,A5G A140U,1.38
22,A5G C113U,0.16
23,A5U U127C,1.03
